Results as given in publication PMC10590968, “Deciphering the role of recurrent FAD-dependent enzymes in bacterial phosphonate catabolism” (iScience, 2023).

Key:
[1] = molecular target: T1, PbfD2 (Mariniblastus fucicola, UniProt A0A5B9PNB8); test: UV-vis spectra of bound flavin; cofactor released by heat or SDS; assay type: binding; details: noncovalent; 10 μM FAD added at lysis; 50 mM TEA-HCl pH 8.0
T1 construct: gene pbfD; noncovalent FAD
T1 sequence (A0A5B9PNB8 1-373): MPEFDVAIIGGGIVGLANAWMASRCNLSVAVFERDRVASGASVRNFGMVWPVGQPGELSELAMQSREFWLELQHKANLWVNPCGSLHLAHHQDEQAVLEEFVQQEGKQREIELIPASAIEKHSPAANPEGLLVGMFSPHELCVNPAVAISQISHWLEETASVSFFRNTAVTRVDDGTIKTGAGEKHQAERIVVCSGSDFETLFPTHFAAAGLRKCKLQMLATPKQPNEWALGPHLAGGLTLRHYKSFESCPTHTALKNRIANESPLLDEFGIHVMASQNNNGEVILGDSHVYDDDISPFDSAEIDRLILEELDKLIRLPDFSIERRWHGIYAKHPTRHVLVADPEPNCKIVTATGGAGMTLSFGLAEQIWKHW

[2] = molecular target: T2, PbfC (Azospirillum sp. B510, UniProt P0DY71); test: as above; assay type: binding; details: noncovalent; 10 μM FAD added during purification; 50 mM TEA-HCl pH 8.0
T2 construct: synthetic codon-optimised gene in pET28a, N-terminal His tag, expressed in E. coli Tuner (DE3), HisTrap and SEC; noncovalent FAD
T2 sequence (P0DY71 1-415): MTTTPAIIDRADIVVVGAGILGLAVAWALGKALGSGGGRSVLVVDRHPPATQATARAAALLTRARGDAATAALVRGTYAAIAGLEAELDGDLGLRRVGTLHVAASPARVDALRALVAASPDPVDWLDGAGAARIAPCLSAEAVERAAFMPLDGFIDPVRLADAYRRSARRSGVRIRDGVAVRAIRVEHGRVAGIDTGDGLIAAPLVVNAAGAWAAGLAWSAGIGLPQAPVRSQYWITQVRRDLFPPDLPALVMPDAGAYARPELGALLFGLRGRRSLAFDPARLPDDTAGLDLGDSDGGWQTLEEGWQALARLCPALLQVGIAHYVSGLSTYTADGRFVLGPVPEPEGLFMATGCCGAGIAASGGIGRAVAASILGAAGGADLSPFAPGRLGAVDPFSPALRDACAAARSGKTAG

[3] = molecular target: T3, PbfD1 (Acinetobacter baumannii, UniProt P0DY72); test: as above; assay type: binding; details: noncovalent; 10 μM FAD added at lysis; 50 mM TEA-HCl pH 8.0
T3 construct: gene pbfD; synthetic codon-optimised gene in pET28a, N-terminal His tag, expressed in E. coli Tuner (DE3), HisTrap; noncovalent FAD
T3 sequence (P0DY72 1-384): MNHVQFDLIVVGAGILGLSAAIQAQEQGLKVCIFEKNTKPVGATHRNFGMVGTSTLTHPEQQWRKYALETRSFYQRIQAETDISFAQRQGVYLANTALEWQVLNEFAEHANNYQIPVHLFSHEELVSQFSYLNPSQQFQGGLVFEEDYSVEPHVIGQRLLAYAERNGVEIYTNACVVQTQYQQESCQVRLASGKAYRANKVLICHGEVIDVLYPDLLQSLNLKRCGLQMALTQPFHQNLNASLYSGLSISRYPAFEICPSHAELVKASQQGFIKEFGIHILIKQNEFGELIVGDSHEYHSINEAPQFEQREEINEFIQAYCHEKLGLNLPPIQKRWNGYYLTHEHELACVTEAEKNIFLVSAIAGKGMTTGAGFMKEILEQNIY

[4] = substrate: CNCCP(=O)(O)O; test: purified protein
[5] = substrate: NCCP(=O)(O)O; test: purified protein
[6] = substrate: CN(C)CCP(=O)(O)O; test: coupled PhnX-ADH assay, NADH A340, Michaelis-Menten fit; assay type: biochemical, Acinetobacter baumannii; details: air-saturated (~0.25 mM O2), 50 mM TEA-HCl pH 8.0, 2.5 mM MgCl2, 25°C
Description: (§1) coupled PhnX-ADH assay, NADH A340, Michaelis-Menten fit on PbfD1

[7] = substrate: CNCCP(=O)(O)O; test: as above; assay type: biochemical, Acinetobacter baumannii; details: air-saturated (~0.25 mM O2), 50 mM TEA-HCl pH 8.0, 2.5 mM MgCl2, 25°C
Description: as §1

[8] = substrate: NCCP(=O)(O)O; test: as above; assay type: biochemical, Acinetobacter baumannii; details: air-saturated (~0.25 mM O2), 50 mM TEA-HCl pH 8.0, 2.5 mM MgCl2, 25°C
Description: as §1

[9] = 80 μM DCPIP, 3 mM PMS, 50 mM TEA-HCl pH 8.0, 25°C
[10] = air-saturated (~0.25 mM O2), 50 mM TEA-HCl pH 8.0, 2.5 mM MgCl2, 25°C

Cc1cc2nc3c(=O)[nH]c(=O)nc-3n(C[C@H](O)[C@H](O)[C@H](O)COP(=O)(O)OP(=O)(O)OC[C@H]3O[C@@H](n4cnc5c(N)ncnc54)[C@H](O)[C@@H]3O)c2cc1C [FAD]
UV-vis spectra of bound flavin; cofactor released by heat or SDS [1]: the spectrum of the released cofactor was typical of FAD
UV-vis spectra of bound flavin; cofactor released by heat or SDS [2]: the spectrum of the released cofactor was typical of FAD
UV-vis spectra of bound flavin; cofactor released by heat or SDS [3]: the spectrum of the released cofactor was typical of FAD

B1: PbfC (Azospirillum sp. B510) (protein)
chain: T2 sequence (P0DY71 1-415)
Km [4, 9]: 0.20 ± 0.01 mM
kcat [4, 9]: 9 ± 0.2 s⁻¹
kcat/Km [4, 9]: 45000 ± 2700 M⁻¹ s⁻¹
Km [5, 9]: 20 ± 1.7 mM
kcat [5, 9]: 2.2 ± 0.1 s⁻¹
kcat/Km [5, 9]: 110 ± 6 M⁻¹ s⁻¹

B2: PbfD1 (Acinetobacter baumannii) (protein)
chain: T3 sequence (P0DY72 1-384)
notes: synthetic codon-optimised gene in pET28a, N-terminal His tag, expressed in E. coli Tuner (DE3), HisTrap; noncovalent FAD
Km [6]: 54 ± 14 mM
kcat [6]: 22 ± 4.5 s⁻¹
kcat/Km [6]: 400 ± 26 M⁻¹ s⁻¹
Km [7]: 5.8 ± 0.62 mM
kcat [7]: 13.2 ± 0.54 s⁻¹
kcat/Km [7]: 2300 ± 160 M⁻¹ s⁻¹
Km [8]: 71 ± 16 mM
kcat [8]: 9.1 ± 1.7 s⁻¹
kcat/Km [8]: 130 ± 6 M⁻¹ s⁻¹

B3: PbfD2 (Mariniblastus fucicola) (protein)
chain: T1 sequence (A0A5B9PNB8 1-373)
Km [4, 10]: 0.36 ± 0.02 mM
kcat [4, 10]: 4.9 ± 0.07 s⁻¹
kcat/Km [4, 10]: 13500 ± 550 M⁻¹ s⁻¹
Km [5, 10]: 2.6 ± 0.32 mM
kcat [5, 10]: 8.9 ± 0.3 s⁻¹
kcat/Km [5, 10]: 3400 ± 320 M⁻¹ s⁻¹
